Results on 1 substance are retold here after publication PMC2570331.

Assay in all cases: split reporter (BiFC, NanoBiT); CFP 1-158 on the N-terminus of α12.2 (WT, Bdel1 or Bdel2), CFP 159-238 on the C-terminus of β3core; HEK-293 cells co-transfected with α2δ1 and an RFP (mCherry or DsRed-Monomer, pooled); median of the cyan/red ratio of single cells
The target in assay [1] is Bdel1 α12.2 tagged with the CFP 1–158 fragment (rat).
Assay [2] has as its target Bdel2 α12.2 tagged with the CFP 1–158 fragment (rat).
Assay [3] concerns the target WT α12.2 tagged with the CFP 1–158 fragment (rat).

WT α12.2 tagged with the CFP 1–158 fragment (rat), sequence (Q02294 whole entry, the tested form may be a part): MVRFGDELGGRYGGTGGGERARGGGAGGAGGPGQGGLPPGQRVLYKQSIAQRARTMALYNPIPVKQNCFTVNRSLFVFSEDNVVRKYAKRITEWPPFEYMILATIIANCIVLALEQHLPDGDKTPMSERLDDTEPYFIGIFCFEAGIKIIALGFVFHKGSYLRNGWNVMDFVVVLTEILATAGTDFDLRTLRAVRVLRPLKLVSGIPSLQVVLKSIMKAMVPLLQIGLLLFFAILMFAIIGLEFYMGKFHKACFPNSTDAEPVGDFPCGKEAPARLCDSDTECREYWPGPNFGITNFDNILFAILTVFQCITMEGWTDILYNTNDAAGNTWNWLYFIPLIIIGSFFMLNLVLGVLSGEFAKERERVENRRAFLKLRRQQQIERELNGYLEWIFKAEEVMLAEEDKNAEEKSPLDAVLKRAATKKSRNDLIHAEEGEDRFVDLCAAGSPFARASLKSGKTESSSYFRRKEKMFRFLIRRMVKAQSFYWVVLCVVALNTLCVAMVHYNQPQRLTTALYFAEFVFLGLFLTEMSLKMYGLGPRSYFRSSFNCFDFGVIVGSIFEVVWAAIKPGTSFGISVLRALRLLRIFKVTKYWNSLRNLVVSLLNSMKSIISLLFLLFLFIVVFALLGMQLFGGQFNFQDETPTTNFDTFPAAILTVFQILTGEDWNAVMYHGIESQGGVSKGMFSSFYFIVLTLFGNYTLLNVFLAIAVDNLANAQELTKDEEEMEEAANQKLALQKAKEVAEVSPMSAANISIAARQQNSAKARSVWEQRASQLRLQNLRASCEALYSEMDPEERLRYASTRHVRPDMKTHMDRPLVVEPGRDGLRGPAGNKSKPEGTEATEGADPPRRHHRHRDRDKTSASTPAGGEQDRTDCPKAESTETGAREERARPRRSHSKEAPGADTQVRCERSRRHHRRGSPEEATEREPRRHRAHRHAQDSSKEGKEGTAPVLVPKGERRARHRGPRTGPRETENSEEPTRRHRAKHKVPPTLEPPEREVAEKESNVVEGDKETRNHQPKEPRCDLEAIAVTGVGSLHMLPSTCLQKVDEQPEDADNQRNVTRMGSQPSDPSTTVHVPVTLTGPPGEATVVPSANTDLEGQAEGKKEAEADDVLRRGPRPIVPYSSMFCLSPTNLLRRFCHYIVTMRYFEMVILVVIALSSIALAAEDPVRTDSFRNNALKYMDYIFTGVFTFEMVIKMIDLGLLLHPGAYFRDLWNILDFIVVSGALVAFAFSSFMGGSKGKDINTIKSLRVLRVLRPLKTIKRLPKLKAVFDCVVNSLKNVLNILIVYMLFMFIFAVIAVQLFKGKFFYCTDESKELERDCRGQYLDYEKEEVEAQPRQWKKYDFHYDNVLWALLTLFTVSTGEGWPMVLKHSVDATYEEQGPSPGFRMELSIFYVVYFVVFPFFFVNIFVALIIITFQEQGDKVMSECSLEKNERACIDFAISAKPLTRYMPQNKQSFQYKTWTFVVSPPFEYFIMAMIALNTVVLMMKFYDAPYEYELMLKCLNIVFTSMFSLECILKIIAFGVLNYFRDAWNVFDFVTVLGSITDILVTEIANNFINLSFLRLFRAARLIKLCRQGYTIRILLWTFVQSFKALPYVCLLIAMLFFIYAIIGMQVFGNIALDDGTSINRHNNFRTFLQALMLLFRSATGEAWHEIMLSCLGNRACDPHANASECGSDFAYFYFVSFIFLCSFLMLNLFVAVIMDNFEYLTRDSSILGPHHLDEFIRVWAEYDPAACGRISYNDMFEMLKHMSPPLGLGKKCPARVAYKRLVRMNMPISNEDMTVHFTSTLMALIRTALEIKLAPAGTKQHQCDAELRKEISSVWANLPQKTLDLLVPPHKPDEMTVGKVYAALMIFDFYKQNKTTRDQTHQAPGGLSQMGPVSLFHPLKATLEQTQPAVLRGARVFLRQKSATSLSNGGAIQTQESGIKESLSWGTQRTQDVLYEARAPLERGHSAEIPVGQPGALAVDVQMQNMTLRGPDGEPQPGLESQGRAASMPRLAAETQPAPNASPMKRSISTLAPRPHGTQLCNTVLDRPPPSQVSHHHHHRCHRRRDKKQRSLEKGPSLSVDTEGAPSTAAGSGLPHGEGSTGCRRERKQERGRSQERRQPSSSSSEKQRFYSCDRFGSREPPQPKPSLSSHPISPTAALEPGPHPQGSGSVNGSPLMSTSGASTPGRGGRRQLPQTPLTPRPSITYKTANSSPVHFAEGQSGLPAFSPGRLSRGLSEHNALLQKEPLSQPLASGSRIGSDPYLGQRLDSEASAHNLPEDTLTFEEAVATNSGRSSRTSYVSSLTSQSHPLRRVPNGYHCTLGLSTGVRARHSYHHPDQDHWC

Regarding “β3-core tagged with the CFP 159–238 fragment (from UniProt P54287 16-366) (domain or fragment)”, the median ratio of cyan (BiFC) to red fluorescence is 0.77 in assay [1], 0.32 in assay [2] and 0.23 in assay [3].
